Results on one substance are retold here after publication PMC11055803, “ANCUT1, a novel thermoalkaline cutinase from Aspergillus nidulans and its application on hydroxycinnamic acids lipophilization” (Biotechnology Letters, 2024).

The data set relates to T1, CC(=O)Oc1ccc([N+](=O)[O-])cc1.
T1 construct: native secreted enzyme purified from culture broth (ammonium sulfate, ultrafiltration, continuous elution electrophoresis, renatured with Triton X-100); 22 kDa, pI 6; no glycosylation detected
Put plainly: Lineweaver-Burk, p-nitrophenol release. It is filed as biochemical, Aspergillus nidulans. The conditions noted are these: Tris-HCl pH 9.0, 37 °C, substrate 0.5-2 mM. From the text: Lineweaver-Burk, p-nitrophenol release on ANCUT1

In general, Km refers to the substrate concentration at which the rate is half of its maximum. Usually Vmax stands for the top rate of the reaction or transport when substrate is in excess. For orientation: kcat means the maximal rate divided by the concentration of active sites. The term kcat/Km denotes the second-order rate constant that governs catalysis at low substrate concentration. Take ANCUT1 (Aspergillus nidulans FGSC A4): the Michaelis constant (Km) is 18.29 mM, the Vmax was 58800 µM/min, the catalytic constant (kcat) amounted to 3.67 s⁻¹ and the kcat/Km stood at 201 M⁻¹ s⁻¹.
